Publication PMC12186880

Biological target: adenine base editing engineered ribonucleoprotein (BE-eRNP): bipartite NLS-TadA(8.20-m)-linker-nCas9(D10A, C80A)-bipartite NLS protein complexed with sgRNA (Escherichia coli | Streptococcus pyogenes)
Assay: native gel or EMSA

stoichiometry N: 2
Substance: adenine base editing engineered ribonucleoprotein (BE-eRNP): bipartite NLS-TadA(8.20-m)-linker-nCas9(D10A, C80A)-bipartite NLS protein complexed with sgRNA (enzyme)
